{
  "source": "paper PMC12548473",
  "about": "“Solution structure of the C-terminal domain of the measles virus V protein in its free form and mechanistic analysis of STAT2 targeting” (Journal of Virology, 2025)",
  "molecules": {"B1": {"name": "MeV-V_(CT221-299) (measles virus V protein, residues 221-299, containing the C-terminal domain) (domain or fragment)", "chain": "GPASTSETPIKKGHRREIGLIWNGDRVFIDRWCNPMCSKVTLGTIRARCTCGECPRVCEQCRTDTGVDTRIWYHNLPEIPE", "notes": "additional Gly and Pro before Ala221, left after HRV-3C protease digestion; 15N- or 13C,15N-labelled for the NMR experiments, unlabelled for ITC; Monomer by SEC; also called MeV-VCT construct; MeV-VCTD; source: E. coli BL21 star (DE3), purified (Glutathione Sepharose 4B, 3C protease elution, HisTrap, HIC, SEC); not shown: GST, N-terminal, cleaved"}},
  "key": {"[1]": {"biological_target": "STAT2 core (Homo sapiens) (UniProt P52630)", "settings": "cited from earlier work"}, "STAT2-core": {"biological_target": "T1, STAT2-core (UniProt P52630 133-679)", "T1 construct": "source: purified", "T1 sequence": "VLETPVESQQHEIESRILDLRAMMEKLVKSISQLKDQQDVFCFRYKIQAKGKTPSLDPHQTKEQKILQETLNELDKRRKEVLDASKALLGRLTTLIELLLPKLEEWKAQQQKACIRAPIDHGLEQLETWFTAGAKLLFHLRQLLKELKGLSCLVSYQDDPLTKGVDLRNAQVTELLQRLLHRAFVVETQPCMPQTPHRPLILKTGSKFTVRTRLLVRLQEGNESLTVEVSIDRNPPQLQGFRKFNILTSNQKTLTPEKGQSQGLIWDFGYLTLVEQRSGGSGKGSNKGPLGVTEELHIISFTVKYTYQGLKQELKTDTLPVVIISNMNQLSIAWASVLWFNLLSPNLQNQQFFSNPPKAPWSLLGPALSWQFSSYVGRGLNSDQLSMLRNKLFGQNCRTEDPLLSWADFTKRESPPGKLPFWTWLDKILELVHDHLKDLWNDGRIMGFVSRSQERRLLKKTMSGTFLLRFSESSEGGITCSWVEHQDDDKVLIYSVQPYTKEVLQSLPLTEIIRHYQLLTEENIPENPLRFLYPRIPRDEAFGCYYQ", "test": "ITC; 250 µM MeV-V_(CT221-299) injected (20 x 2.5 µL) into 35 µM STAT2-core; 20°C; 10 mM HEPES pH 7.4, 150 mM NaCl, 1 mM TCEP; 1:1 binding model; three independent experiments", "settings": "both partners purified"}},
  "data": [
    {"molecule": "MeV-V (from UniProt P0C774)", "values": [
      {"measurement": "Kd", "setting": "[1]", "result": 180, "unit": "nM"}
    ]},
    {"molecule": "B1", "values": [
      {"measurement": "Kd", "setting": "STAT2-core", "result": 212, "unit": "nM"},
      {"measurement": "dH", "setting": "STAT2-core", "result": -12.5, "unit": "kcal/mol"},
      {"measurement": "stoichiometry N", "setting": "STAT2-core", "result": 1.17}
    ]}
  ]
}
